Experimental findings from paper PMC6251626 are described below.

For test [1], the target named is αβ-tubulin heterodimer purified from porcine brains (porcine) (UniProt P02550). Briefly: SEC; quantitative SEC (Superdex 200 10/300) with SDS-PAGE densitometry of fractions; 2 αβ-tubulin per Alp14 subunit, with or without DRP; 200 mM KCl, 50 mM HEPES pH 7.0, 1 mM MgCl2, 1 mM β-mercaptoethanol. For orientation: Size exclusion chromatography separates by hydrodynamic size, large species first.

The target in test [2] is DRP-bound αβ-tubulin (1:1 complex of porcine αβ-tubulin and DARPin D1) (porcine) (UniProt P02550). Described as above.
Test [3] has as its target αβ-tubulin heterodimer purified from porcine brains (porcine) (UniProt P02550). Briefly: SEC; quantitative SEC (Superdex 200 10/300) with SDS-PAGE densitometry of fractions; 1 αβ-tubulin per Alp14 subunit, with or without DRP; 200 mM KCl, 50 mM HEPES pH 7.0, 1 mM MgCl2, 1 mM β-mercaptoethanol.
In test [4] the target is DRP-bound αβ-tubulin (1:1 complex of porcine αβ-tubulin and DARPin D1) (porcine) (UniProt P02550). Described as above.
Test [5] has as its target αβ-tubulin heterodimer purified from porcine brains (porcine) (UniProt P02550). In words: SEC-MALS; Alp14 constructs mixed with soluble αβ-tubulin (with or without DRP), Superdex 200 Increase 10/300, 80-100 mM KCl.
For test [6] the target is unchanged. Briefly: SEC; quantitative SEC (Superdex 200 10/300) with SDS-PAGE densitometry of fractions; 2 αβ-tubulin per Alp14 subunit, with or without DRP; 100 mM KCl, 50 mM HEPES pH 7.0, 1 mM MgCl2, 1 mM β-mercaptoethanol.
The target in test [7] is DRP-bound αβ-tubulin (1:1 complex of porcine αβ-tubulin and DARPin D1) (porcine) (UniProt P02550). Described as above.
Test [8] concerns the target αβ-tubulin heterodimer purified from porcine brains (porcine) (UniProt P02550). In words: SEC; quantitative SEC (Superdex 200 10/300) with SDS-PAGE densitometry of fractions; 1 αβ-tubulin per Alp14 subunit, with or without DRP; 100 mM KCl, 50 mM HEPES pH 7.0, 1 mM MgCl2, 1 mM β-mercaptoethanol.
Test [9] addresses DRP-bound αβ-tubulin (1:1 complex of porcine αβ-tubulin and DARPin D1) (porcine) (UniProt P02550). The description is as above.
The target is the same in test [10]. In words: ITC; TOG1 or TOG2 (100-250 μM) injected into a cell with 1:1 αβ-tubulin and DRP (20-40 μM); 25°C, 50 mM HEPES pH 7.3, 100 mM KCl, 1 mM MgCl2.
Test [11] has the same target. In words: ITC; TOG1 or TOG2 (100-250 μM) injected into a cell with 1:1 αβ-tubulin and DRP (20-40 μM); 25°C, 50 mM HEPES pH 7.3, 200 mM KCl, 1 mM MgCl2. On the technique in general: ITC needs no label: the signal is the heat of the interaction.
The target is the same in test [12]. Briefly: SEC-MALS; Alp14 constructs mixed with soluble αβ-tubulin (with or without DRP), Superdex 200 Increase 10/300, 80-100 mM KCl.

B1: wt-Alp14-dimer (S. pombe Alp14 residues 1-690) (domain or fragment)
chain: MSQDQEEDYSKLPLESRIVHKVWKVRLSAYEECSKSFSLSADGSDNCFELWNNQSELWKSVLTDSNVAAQEAGTAAFVAYCRFSDPSHLLKAREISVLSISEKCLTSPRAGTRENALEALMLLVEADSAAPVIESIIPSLSARSPKVIASNVAAIASLVEQFGAKVIPSKMIIPHISNLFGHADKNVRKEASRLTVNIYRWTGDPLKDLLFKDLRPVQTKELESLFAELPTEPPKQTRFLKSQQPTSEPNVETQVEEQPALENEESEPEPSDDQFDLVEEVDVLPNVDPNLETLMASSKWKDRKEALDKLLPVLSQPKIKDNDFFNLVAILTKSVSKDANIMVVINAAHCIQAMAKGLRSNFSKYASTSINALLERSKEKKANVIESLSSAMDAVLATSSLDDLAELIASFAGNKNPQIKSSCFSLFSRSFSNMTSLPSKFTVDTCAKACVPGVSDTFEPVRSAAAEALGVLMKLVGERAINQYLSPLDDIRKSKIRSFYETATVKAKAPTKKSKVKPSKQEESKVVVPSNAKAVKKSVVPSSPVVPSPRKATNKSLSMDVSKGNAFENGPLLPRPTTRPVSRGLSRGTSSSLQQKVKASTPLNSGALNETVQNLKNMELDDPAPQPAKHSRVDRYEHPKVLEDNDSTISSLESLKRENEELREQLKVEHEENISMQKQLSELKGELNTL
In general, stoichiometry N refers to a count of units in the complex or per binding partner. Take B1: the TOG1-TOG2:αβ-tubulin molar ratio in test [1] worked out at 1.24; in test [2], 1.36; in [3], 0.78; in test [4], 0.95; in test [6] it was 1.61; in test [7], 1.89. The TOG1-TOG2:αβ-tubulin molar ratio in test [8] came out at 0.98; in test [9] it was 0.96. The µM tubulin bound in [1] turned out to be 5.46 µM; in test [2], 6.02 µM; in test [3] it was 3.44 µM; in test [4] it was 4.17 µM; in test [6], 7.11 µM; in test [7], 8.33 µM. Besides, the µM tubulin bound turned out to be 4.31 µM in test [8] and 4.23 µM in test [9]. For the same molecule, the stoichiometry N in [5] and in test [7] was 4 in each case.

B2: isolated TOG2 domain of Alp14 (residues 320-510) (domain or fragment)
chain: KDNDFFNLVAILTKSVSKDANIMVVINAAHCIQAMAKGLRSNFSKYASTSINALLERSKEKKANVIESLSSAMDAVLATSSLDDLAELIASFAGNKNPQIKSSCFSLFSRSFSNMTSLPSKFTVDTCAKACVPGVSDTFEPVRSAAAEALGVLMKLVGERAINQYLSPLDDIRKSKIRSFYETATVKAKAP
Usually Kd stands for the constant that tells how readily two partners part at equilibrium. A lower Kd goes with a tighter complex. For B2, the values for the Kd in test [10] and in test [11] were 173 nM and 3250 nM, respectively.

B3: wt-Alp14-monomer (S. pombe Alp14 residues 1-510) (domain or fragment)
chain: MSQDQEEDYSKLPLESRIVHKVWKVRLSAYEECSKSFSLSADGSDNCFELWNNQSELWKSVLTDSNVAAQEAGTAAFVAYCRFSDPSHLLKAREISVLSISEKCLTSPRAGTRENALEALMLLVEADSAAPVIESIIPSLSARSPKVIASNVAAIASLVEQFGAKVIPSKMIIPHISNLFGHADKNVRKEASRLTVNIYRWTGDPLKDLLFKDLRPVQTKELESLFAELPTEPPKQTRFLKSQQPTSEPNVETQVEEQPALENEESEPEPSDDQFDLVEEVDVLPNVDPNLETLMASSKWKDRKEALDKLLPVLSQPKIKDNDFFNLVAILTKSVSKDANIMVVINAAHCIQAMAKGLRSNFSKYASTSINALLERSKEKKANVIESLSSAMDAVLATSSLDDLAELIASFAGNKNPQIKSSCFSLFSRSFSNMTSLPSKFTVDTCAKACVPGVSDTFEPVRSAAAEALGVLMKLVGERAINQYLSPLDDIRKSKIRSFYETATVKAKAP
Turning to B3, the TOG1-TOG2:αβ-tubulin molar ratio in test [1] came out at 1.35; in [2], 1.28; in test [3], 0.76; in [4], 0.94; in test [6], 2; in test [7], 1.64. For the same molecule, the TOG1-TOG2:αβ-tubulin molar ratio in test [8] came to 1.04; in test [9], 0.98. The µM tubulin bound in test [1] came to 5.97 µM; in test [2] it was 5.67 µM; in [3], 3.37 µM; in test [4] it was 4.13 µM; in test [6], 8.82 µM; in test [7], 7.23 µM. Further, the µM tubulin bound turned out to be 4.57 µM in test [8] and 4.33 µM in test [9]. Besides, the stoichiometry N in test [5] and in test [12] was 2 each time.

B4: isolated TOG1 domain of Alp14 (residues 1-270) (domain or fragment)
chain: MSQDQEEDYSKLPLESRIVHKVWKVRLSAYEECSKSFSLSADGSDNCFELWNNQSELWKSVLTDSNVAAQEAGTAAFVAYCRFSDPSHLLKAREISVLSISEKCLTSPRAGTRENALEALMLLVEADSAAPVIESIIPSLSARSPKVIASNVAAIASLVEQFGAKVIPSKMIIPHISNLFGHADKNVRKEASRLTVNIYRWTGDPLKDLLFKDLRPVQTKELESLFAELPTEPPKQTRFLKSQQPTSEPNVETQVEEQPALENEESEPEP
In the case of B4, the Kd in [10] turned out to be 70 nM; in [11] it was 1500 nM.
